The assay deals with pyramidal neurons of mouse neocortical slices. The assay is described as follows: Bioluminescence Ca2+ imaging of transduced neocortical slices in Mg2+-free ACSF. The format is cell-based. As to conditions: native coelenterazine, 25 Hz. As to the method:
Recombinant Sindbis viruses were prepared and used to express Redquorin mutants and GA in neurons of brain slices as described (Drobac et al., 2010), (Tricoire and Lambolez, 2014). The coding sequences of Redquorin mutants and GA were first subcloned in the plasmid pSinRep5 (Invitrogen) upstream to the polyA signal. The resulting pSinRep5 plasmids encoding the fusion protein sensors as well as the helper plasmid pDH26S (Invitrogen) were then submitted to in vitro transcription to prepare capped RNA using the Megascript SP6 kit (Ambion). […]
Bioluminescence imaging was performed at room temperature using an intensified CDD video camera (ICCD225; Photek) controlled by the IFS32 software (Photek), and mounted on an upright microscope (BX51WI, Olympus) equipped with water immersion objectives ×10 (NA=0.3) and ×20 (NA=0.95). Prior to bioluminescence imaging, fluorescence images of GA- or Redquorin-transduced slices were acquired in the “bright field” mode of the camera using GFP (Semrock) or Cy3ET (Chroma) filter sets. […]
The transduced acute brain slices expressing the sensors were then perfused with artificial cerebrospinal fluid (ACSF) without Mg^2+. […] Before the threshold for depolarization, the recorded imaging intensity was very weak consistent with the concept of low background luminescence of photoproteins. […]

The text below walks through data of US20180319855A1, “GENETICALLY MUTATED AEQUORIN-BASED BIOSENSORS WITH EXTRA SENSITIVITY TO CALCIUM AND IMPROVED BIOLUMINESCENCE INTENSITY” (CENTRE NATIONAL DE LA RECHERCHE SCIENTIFIQUE (CNRS), priority 2015, published 2018).

B1: Redq/Q159T: aporedquorin (tdTomato-aequorin fusion) mutant Q159T (SEQ ID NO:22) (protein)
chain: MVSKGEEVIKEFMRFKVRMEGSMNGHEFEIEGEGEGRPYEGTQTAKLKVTKGGPLPFAWDILSPQFMYGSKAYVKHPADIPDYKKLSFPEGFKWERVMNFEDGGLVTVTQDSSLQDGTLIYKVKMRGTNFPPDGPVMQKKTMGWEASTERLYPRDGVLKGEIHQALKLKDGGHYLVEFKTIYMAKKPVQLPGYYYVDTKLDITSHNEDYTIVEQYERSEGRHHLFLGHGTGSTGSGSSGTASSEDNNMAVIKEFMRFKVRMEGSMNGHEFEIEGEGEGRPYEGTQTAKLKVTKGGPLPFAWDILSPQFMYGSKAYVKHPADIPDYKKLSFPEGFKWERVMNFEDGGLVTVTQDSSLQDGTLIYKVKMRGTNFPPDGPVMQKKTMGWEASTERLYPRDGVLKGEIHQALKLKDGGHYLVEFKTIYMAKKPVQLPGYYYVDTKLDITSHNEDYTIVEQYERSEGRHHLFLSGFDNPRWIGRHKHMFNFLDVNHNGKISLDEMVYKASDIVINNLGATPEQAKRHKDAVEAFFGGAGMKYGVETDWPAYIEGWKKLATDELEKYAKNEPTLIRIWGDALFDIVDKDQNGAITLDEWKAYTKAAGIIQSSEDCEETFRVCDIDESGTLDVDEMTRQHLGFWYTMDPACEKLYGGAVP
modifications: mutant aequorin
With B1, the “bioluminescence imaging response to Ca2+ transients” value is “performed as well as its analogue GA”.

B2: Redq/Q159D: aporedquorin (tdTomato-aequorin fusion) mutant Q159D (SEQ ID NO:21) (protein)
chain: MVSKGEEVIKEFMRFKVRMEGSMNGHEFEIEGEGEGRPYEGTQTAKLKVTKGGPLPFAWDILSPQFMYGSKAYVKHPADIPDYKKLSFPEGFKWERVMNFEDGGLVTVTQDSSLQDGTLIYKVKMRGTNFPPDGPVMQKKTMGWEASTERLYPRDGVLKGEIHQALKLKDGGHYLVEFKTIYMAKKPVQLPGYYYVDTKLDITSHNEDYTIVEQYERSEGRHHLFLGHGTGSTGSGSSGTASSEDNNMAVIKEFMRFKVRMEGSMNGHEFEIEGEGEGRPYEGTQTAKLKVTKGGPLPFAWDILSPQFMYGSKAYVKHPADIPDYKKLSFPEGFKWERVMNFEDGGLVTVTQDSSLQDGTLIYKVKMRGTNFPPDGPVMQKKTMGWEASTERLYPRDGVLKGEIHQALKLKDGGHYLVEFKTIYMAKKPVQLPGYYYVDTKLDITSHNEDYTIVEQYERSEGRHHLFLSGFDNPRWIGRHKHMFNFLDVNHNGKISLDEMVYKASDIVINNLGATPEQAKRHKDAVEAFFGGAGMKYGVETDWPAYIEGWKKLATDELEKYAKNEPTLIRIWGDALFDIVDKDQNGAITLDEWKAYTKAAGIIQSSEDCEETFRVCDIDESGDLDVDEMTRQHLGFWYTMDPACEKLYGGAVP
modifications: mutant aequorin
As to B2, the “bioluminescence imaging response to Ca2+ transients” value was “significant signal-over-background ratio”.
